Data: US20220389394A1
Where two headings read alike, the source gives them in different places.

Tests used:
[1] = molecular target: biotinylated recombinant human FcγRI protein (Sino Biological) (human) (UniProt P12314); test: AlphaScreen competition; biotinylated FcγRI, competitor human IgG acceptor beads, 4PL fit
[2] = molecular target: biotinylated recombinant human FcγRIIIa (Val 176 variant) protein (Sino Biological) (human) (UniProt P08637); test: AlphaScreen competition; biotinylated FcγRIIIa (Val 176 variant), competitor human IgG acceptor beads, 4PL fit
biotinylated recombinant human FcγRIIIa (Val 176 variant) protein (Sino Biological) (human), sequence (P08637 other isoform, or with tags, fused parts or gaps mutant limits assumed): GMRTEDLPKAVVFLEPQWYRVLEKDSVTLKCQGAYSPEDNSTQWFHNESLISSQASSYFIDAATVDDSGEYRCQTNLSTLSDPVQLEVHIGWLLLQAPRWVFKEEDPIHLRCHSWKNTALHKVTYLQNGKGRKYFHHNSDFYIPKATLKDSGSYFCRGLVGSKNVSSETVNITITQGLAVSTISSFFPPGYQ

[3] = molecular target: biotinylated recombinant human FcγRI protein (Sino Biological) (human) (UniProt P12314); test: AlphaScreen competition; biotinylated FcγRI, competitor human IgG acceptor beads, 4PL fit; remark: listed apart in the source
[4] = molecular target: biotinylated recombinant human FcγRIIIa (Val 176 variant) protein (Sino Biological) (human) (UniProt P08637); test: AlphaScreen competition; biotinylated FcγRIIIa (Val 176 variant), competitor human IgG acceptor beads, 4PL fit; remark: listed apart in the source
[5] = molecular target: recombinant human FcRn (human) (UniProt P55899); test: ELISA; recombinant human FcRn coated, serially diluted test article, anti-human (H+L)-HRP, 4PL fit
recombinant human FcRn (human), sequence (P55899 24-297 limits assumed, chain 1 of 2): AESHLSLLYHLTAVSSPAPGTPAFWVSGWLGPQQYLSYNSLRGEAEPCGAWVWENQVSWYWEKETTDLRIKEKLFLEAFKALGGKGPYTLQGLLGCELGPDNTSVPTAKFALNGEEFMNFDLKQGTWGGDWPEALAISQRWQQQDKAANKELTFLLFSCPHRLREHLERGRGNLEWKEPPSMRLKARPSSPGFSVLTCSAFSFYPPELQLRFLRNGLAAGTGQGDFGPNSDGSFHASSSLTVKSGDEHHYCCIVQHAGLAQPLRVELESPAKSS
recombinant human FcRn (human), sequence (chain, as listed by the source limits assumed, chain 2 of 2): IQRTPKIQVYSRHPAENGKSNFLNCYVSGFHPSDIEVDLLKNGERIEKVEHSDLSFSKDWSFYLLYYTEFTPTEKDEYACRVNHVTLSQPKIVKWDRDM

[6] = molecular target: recombinant human C1q protein (Fitzgerald) (human) (UniProt P02745); test: ELISA; serially diluted test article immobilized, recombinant human C1q added, anti-C1q-HRP, 4PL fit
recombinant human C1q protein (Fitzgerald) (human), sequence (P02745 23-245 limits assumed, chain 1 of 3): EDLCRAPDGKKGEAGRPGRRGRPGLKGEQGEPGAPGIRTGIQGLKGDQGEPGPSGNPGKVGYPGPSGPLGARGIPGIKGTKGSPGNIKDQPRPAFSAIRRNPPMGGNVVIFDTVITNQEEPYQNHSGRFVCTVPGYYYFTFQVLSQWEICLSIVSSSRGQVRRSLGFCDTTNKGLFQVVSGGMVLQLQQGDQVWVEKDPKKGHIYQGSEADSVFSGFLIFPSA
recombinant human C1q protein (Fitzgerald) (human), sequence (P02746 28-253 limits assumed, chain 2 of 3, further chain): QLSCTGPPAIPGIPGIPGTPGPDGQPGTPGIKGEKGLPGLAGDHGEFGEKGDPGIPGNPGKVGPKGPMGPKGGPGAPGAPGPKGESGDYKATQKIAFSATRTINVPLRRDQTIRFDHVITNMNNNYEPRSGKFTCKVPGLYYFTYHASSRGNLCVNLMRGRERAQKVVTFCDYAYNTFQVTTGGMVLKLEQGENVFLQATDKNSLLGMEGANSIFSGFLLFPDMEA
recombinant human C1q protein (Fitzgerald) (human), sequence (P02747 29-245 limits assumed, chain 3 of 3, further chain): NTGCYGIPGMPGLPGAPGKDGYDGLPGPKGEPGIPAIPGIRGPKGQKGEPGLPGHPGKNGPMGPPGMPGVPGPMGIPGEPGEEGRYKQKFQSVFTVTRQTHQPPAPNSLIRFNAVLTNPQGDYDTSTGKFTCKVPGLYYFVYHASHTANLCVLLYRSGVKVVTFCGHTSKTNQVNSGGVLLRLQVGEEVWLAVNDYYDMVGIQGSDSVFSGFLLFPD

[7] = molecular target: recombinant human C1q protein (Fitzgerald) (human) (UniProt P02745); test: as above; remark: listed apart in the source
[8] = molecular target: human FLT3 on the AML5 cell line (human) (UniProt P36888); test: cell-based or functional assay
human FLT3 on the AML5 cell line (human), sequence (P36888 27-993): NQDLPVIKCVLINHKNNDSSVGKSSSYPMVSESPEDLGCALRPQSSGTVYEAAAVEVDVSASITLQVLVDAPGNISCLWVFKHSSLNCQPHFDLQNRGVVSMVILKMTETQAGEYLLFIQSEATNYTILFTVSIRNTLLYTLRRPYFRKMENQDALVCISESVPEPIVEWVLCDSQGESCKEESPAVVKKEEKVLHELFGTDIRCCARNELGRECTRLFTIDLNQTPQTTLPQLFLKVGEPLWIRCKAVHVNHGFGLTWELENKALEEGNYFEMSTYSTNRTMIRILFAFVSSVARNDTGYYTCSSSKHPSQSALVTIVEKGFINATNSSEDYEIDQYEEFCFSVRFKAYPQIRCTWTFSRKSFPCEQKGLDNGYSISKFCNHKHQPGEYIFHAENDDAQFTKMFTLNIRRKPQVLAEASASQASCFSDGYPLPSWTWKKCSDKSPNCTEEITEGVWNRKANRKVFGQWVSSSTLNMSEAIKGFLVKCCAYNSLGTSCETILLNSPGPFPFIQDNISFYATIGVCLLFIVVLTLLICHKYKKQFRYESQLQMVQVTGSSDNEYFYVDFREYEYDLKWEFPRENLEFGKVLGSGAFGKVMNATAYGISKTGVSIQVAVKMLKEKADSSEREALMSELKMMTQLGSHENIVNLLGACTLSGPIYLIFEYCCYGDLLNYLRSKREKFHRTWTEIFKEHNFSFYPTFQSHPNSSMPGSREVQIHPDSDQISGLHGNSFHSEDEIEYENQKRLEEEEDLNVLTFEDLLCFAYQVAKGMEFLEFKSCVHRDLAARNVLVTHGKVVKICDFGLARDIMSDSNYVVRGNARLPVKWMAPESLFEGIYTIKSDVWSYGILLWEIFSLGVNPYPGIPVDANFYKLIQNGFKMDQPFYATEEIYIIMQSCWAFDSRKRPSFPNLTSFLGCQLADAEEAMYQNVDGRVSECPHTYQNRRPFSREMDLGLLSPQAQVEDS

[9] = molecular target: mouse FLT3 on the M1 cell line (mouse) (UniProt Q00342); test: cell-based or functional assay
mouse FLT3 on the M1 cell line (mouse), sequence (Q00342 28-1000): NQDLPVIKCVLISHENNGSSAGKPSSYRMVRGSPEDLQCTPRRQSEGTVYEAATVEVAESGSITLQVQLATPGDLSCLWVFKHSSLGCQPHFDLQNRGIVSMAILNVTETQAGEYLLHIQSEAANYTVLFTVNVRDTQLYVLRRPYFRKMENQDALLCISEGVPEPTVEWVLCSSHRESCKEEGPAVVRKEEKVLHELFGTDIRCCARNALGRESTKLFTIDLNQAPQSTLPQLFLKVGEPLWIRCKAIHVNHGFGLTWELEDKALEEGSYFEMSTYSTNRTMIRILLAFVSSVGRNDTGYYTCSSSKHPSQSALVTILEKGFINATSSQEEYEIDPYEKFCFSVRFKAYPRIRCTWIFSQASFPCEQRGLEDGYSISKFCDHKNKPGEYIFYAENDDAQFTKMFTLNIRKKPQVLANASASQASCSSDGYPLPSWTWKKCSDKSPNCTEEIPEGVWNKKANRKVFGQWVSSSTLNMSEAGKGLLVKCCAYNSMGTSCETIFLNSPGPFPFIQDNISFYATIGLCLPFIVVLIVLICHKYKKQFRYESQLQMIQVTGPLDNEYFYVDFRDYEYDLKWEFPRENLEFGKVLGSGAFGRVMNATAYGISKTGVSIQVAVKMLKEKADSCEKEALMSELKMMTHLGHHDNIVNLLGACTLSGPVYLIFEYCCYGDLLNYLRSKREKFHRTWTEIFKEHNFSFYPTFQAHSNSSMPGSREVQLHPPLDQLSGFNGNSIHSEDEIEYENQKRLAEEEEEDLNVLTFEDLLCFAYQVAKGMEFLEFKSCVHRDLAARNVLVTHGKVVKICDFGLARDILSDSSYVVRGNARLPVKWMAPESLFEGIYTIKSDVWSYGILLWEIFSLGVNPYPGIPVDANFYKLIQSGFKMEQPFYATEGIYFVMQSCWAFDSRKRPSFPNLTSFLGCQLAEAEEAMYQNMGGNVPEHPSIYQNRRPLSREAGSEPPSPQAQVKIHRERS

biotinylated recombinant human FcγRI protein (Sino Biological) (human), sequence (P12314 16-288 limits assumed): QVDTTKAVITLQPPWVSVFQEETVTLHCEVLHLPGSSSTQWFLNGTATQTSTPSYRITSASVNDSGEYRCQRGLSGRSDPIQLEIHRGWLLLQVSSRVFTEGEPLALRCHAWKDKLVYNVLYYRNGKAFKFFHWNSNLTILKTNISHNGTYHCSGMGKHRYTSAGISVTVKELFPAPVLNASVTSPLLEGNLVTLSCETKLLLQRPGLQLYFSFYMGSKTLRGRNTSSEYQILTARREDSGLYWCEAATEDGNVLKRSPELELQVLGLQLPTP

Row | Substance | EC50 [1] [nM] | EC50 [2] [nM] | EC50 [3] [nM] | EC50 [4] [nM] | EC50 [5] [nM] | EC50 [6] [nM] | EC50 [7] [nM] | EC50 (nM), AML5 proliferation [8] [nM] | EC50 (nM), M1 IL-6 release assay [9] [nM] | Emax (pg/ml), M1 IL-6 release assay [9] [pg/mL]
1 | human IgG1 isotype antibody | 4.44 | 38.8 | 5.25 | 32.1 | 4.46 |  |  |  |  | 
2 | human IgG4 isotype antibody | 13.6 | 368 | 14.5 | 326 | 25.9 | 16.7 | 13.7 |  |  | 
3 | recombinant human FLT3-ligand (from UniProt P49771 27-185) |  |  |  |  |  |  |  | 0.039 | 0.024 | 392
4 | recombinant human FLT3-ligand human IgG1 fusion protein (Fc fusion) |  |  |  |  |  |  |  |  | 0.117 | 517
